Experimental data as given in US7229788B1, “Protease susceptibility II” (The University of Sydney, priority 1998, dated 2007).
“Also recorded” adds a separate entry of the source.

Legend:
human serum = details: for effect of protease inhibitor on serum degradation of SHEL (amount of full-length SHEL): SHEL incubated with serum at 37° C., SDS-PAGE, 0.5 mM Pefabloc SC, 5 mM PMSF, 25 mM EDTA, Pefabloc PK, 1 unit Hirudin; for effect of peptide on degradation of SHEL by serum (full-length SHEL, SDS-PAGE, densitometry): molar excess of peptide to SHEL (100:1), preincubated 37° C., SHEL and SHELδ26A
Method: Human serum was obtained from fresh intravenous blood, centrifuged at 2000 g to remove red blood cells and then allowed to clot before serum was removed. Aliquots (20 μl) were stored at −20° C. and thawed when needed. 15 μg tropoelastin in 50 mM sodium phosphate buffer, pH 7.8 was incubated with 0.5 μl serum in a 20 μl reaction for between 1 and 18 hr at 37° C. […] All inhibitors were dissolved in water except PMSF which was dissolved in isopropanol. Reactions were analysed by 8% SDS-PAGE. Serum-digested peptides to be used for sequencing were purified by the addition of 1.5 volumes n-propanol, followed by 2.5 volumes n-butanol and stirred overnight. The organic solvents were removed by rotary evaporation and peptides resuspended in 50 mM sodium phosphate buffer, pH 7.8.
Various dilutions of serum from ½– 1/50 in 50 mM sodium phosphate pH7.8 were used and both SHEL and SHELδ26A were used for each experiment.
Experiments were conducted in parallel with S-GAL using identical procedures (see above). Both SHEL and SHELδ26A were used. Each reaction was analysed by 10% SDS-PAGE. Gels were scanned by densitometry and the volume of full-length SHEL calculated as follows. Scanning densitometry of stained gels was performed using the Molecular Dynamics Personal Densitometer. Images were analysed and quantitated using ImageQuant software (Version 3.2, Molecular Dynamics USA).
10 mg/ml SHEL in 50 mM sodium phosphate pH7.8 and 150 mM NaCl was allowed to coacervate at 37° C. until cloudy before adding human plasma kallikrein (6×10^−4U), thrombin (1U), plasmin (1.5×10^−5U), trypsin (2×10^−3U), HLE (1.6×10^−3U) and serum (0.75 μl) for one hour. Control reactions were performed at 16° C. for three hours. Extent of proteolysis was monitored by SDS-PAGE.

human thrombin = biological target: T1, human thrombin (Homo sapiens, UniProt P00734); test: Thrombin digestion of SHEL, SDS-PAGE; assay type: biochemical; details: for effect of peptide on degradation of SHEL by thrombin (full-length SHEL, SDS-PAGE, densitometry): molar excess of peptide to SHEL (100:1), SHEL and SHELδ26A
T1 construct: purchased Sigma
Method: (§1) A range of enzyme concentrations was originally used to determine the optimal amount for subsequent experiments. Thrombin (0.01–1U), human plasma kallikrein (3×10^−4 to 3×10^−3U), human plasmin (7×10^−5 to 4×10^−7U), bovine trypsin (5×10^−4 to 4×10^−3U), and human leukocyte elastase (1.6×10^−4 to 3.2×10^−3U) were added to 10 μg SHEL or SHELδ26A in 50 mM sodium phosphate buffer pH 7.8 in a total volume of 20 μl. All reactions were performed at 37° C. for one hour. Gelatinase A and B were activated using 0.8 mM APMA at 37° C. for 30 minutes (gelatinase A) or 37° C. for 45 minutes (gelatinase B). Gelatinase A (4×10^−3−4×10^−2) and gelatinase B (2×10^−5−1×10^−4) was added to […] SHEL or SHELd26A in a total volume of […]. Gelatinase B reactions were performed in the presence of 0.75 mM APMA. The degradation profile was analysed by 8, 10 or 12% SDS-PAGE.
(§2) Both SHEL and SHELδ26A were used. Each reaction was analysed by 10% SDS-PAGE.
(§3) Extent of proteolysis was monitored by SDS-PAGE.
Cleavage of GST-SHEL bound to glutathione agarose was performed by washing and resuspending beads in 1× thrombin cleavage buffer (50 mM Tris-HCl pH8.0, 150 mM NaCl, 2.5 mM CaCl2) and adding human thrombin (Sigma) from 0.1 to 1% (w/v) thrombin:fusion protein at 25° C. for one hour (Smith and Johnston 1988). Soluble bacterial lysates used as substrate were incubated similarly with 1× thrombin cleavage buffer, added from a 10× stock. GST (26 kDa) was evident on beads by SDS-PAGE but SHEL could not be identified in the supernatant in numerous experiments. To determine whether thrombin was degrading SHEL, the entire cell lysate was subject to cleavage with increasing concentrations of thrombin. […] GST was clearly present. However, with 0.01U thrombin a band at approximately 64 kDa could be discerned which may represent SHEL although this was not nearly as intense as the GST band.

gelatinase A = gelatinase A (Homo sapiens, UniProt P08253)
Sequence of gelatinase A (P08253 110-660): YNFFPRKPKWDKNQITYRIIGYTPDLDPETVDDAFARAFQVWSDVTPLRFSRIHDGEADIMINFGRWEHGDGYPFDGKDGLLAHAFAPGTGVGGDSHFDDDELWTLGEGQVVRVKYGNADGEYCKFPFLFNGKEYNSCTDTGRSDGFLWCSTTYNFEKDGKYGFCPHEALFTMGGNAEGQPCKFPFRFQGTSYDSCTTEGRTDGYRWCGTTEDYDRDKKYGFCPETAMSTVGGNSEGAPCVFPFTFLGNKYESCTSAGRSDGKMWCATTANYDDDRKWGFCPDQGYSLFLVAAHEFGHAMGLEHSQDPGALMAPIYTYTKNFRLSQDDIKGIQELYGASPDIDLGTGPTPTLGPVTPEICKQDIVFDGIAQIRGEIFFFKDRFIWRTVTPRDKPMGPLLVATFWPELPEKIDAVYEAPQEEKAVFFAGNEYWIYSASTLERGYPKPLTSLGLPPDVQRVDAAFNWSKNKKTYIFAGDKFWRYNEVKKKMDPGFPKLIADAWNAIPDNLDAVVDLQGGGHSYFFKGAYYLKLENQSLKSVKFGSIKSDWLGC

human plasmin = biological target: T2, human plasmin (Homo sapiens, UniProt P00747); test: Plasmin digestion of SHEL, SDS-PAGE; assay type: biochemical; details: molar excess of peptide to SHEL (100:1); SHEL and SHELδ26A
T2 construct: purchased Sigma
T2 sequence (P00747 97-810): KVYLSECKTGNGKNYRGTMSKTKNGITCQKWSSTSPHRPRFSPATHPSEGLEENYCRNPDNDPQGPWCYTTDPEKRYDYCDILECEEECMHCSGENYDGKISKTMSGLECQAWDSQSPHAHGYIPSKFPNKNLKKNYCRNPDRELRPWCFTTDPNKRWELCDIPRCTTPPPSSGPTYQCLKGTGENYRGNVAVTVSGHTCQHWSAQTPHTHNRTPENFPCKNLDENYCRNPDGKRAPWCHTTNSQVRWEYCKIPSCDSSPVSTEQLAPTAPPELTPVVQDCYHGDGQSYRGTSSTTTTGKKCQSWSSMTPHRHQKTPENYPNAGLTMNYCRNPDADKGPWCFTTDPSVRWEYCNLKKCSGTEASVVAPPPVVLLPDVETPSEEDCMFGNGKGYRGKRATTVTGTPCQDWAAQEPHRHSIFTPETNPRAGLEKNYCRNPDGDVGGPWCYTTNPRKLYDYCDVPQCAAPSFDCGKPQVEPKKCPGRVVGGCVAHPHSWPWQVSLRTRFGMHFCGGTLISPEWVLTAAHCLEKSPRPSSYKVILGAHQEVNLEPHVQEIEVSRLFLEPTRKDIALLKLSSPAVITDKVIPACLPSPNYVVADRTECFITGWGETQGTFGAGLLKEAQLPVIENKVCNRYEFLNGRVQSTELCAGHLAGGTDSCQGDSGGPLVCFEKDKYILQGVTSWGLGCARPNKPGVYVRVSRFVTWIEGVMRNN
Method: as §1, §2, §3

bovine trypsin = biological target: T3, bovine trypsin (Bos taurus, UniProt P00760); test: Trypsin digestion of SHEL, SDS-PAGE; assay type: biochemical; details: molar excess of peptide to SHEL (100:1); SHEL and SHELδ26A
T3 construct: purchased Boehringer-Mannheim
T3 sequence (P00760 24-246): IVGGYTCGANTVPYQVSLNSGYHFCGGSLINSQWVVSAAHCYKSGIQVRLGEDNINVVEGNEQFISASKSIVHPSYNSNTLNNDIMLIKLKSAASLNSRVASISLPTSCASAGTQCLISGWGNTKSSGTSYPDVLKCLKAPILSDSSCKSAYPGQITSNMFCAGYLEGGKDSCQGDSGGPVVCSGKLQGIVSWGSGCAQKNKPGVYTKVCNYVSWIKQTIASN
Method: as §1, §2, §3

human plasma kallikrein = biological target: T4, human plasma kallikrein (Homo sapiens, UniProt P03952); test: Kallikrein digestion of SHEL, SDS-PAGE; assay type: biochemical; details: molar excess of peptide to SHEL (100:1); SHEL and SHELδ26A
T4 construct: purchased Sigma
T4 sequence (P03952 20-638): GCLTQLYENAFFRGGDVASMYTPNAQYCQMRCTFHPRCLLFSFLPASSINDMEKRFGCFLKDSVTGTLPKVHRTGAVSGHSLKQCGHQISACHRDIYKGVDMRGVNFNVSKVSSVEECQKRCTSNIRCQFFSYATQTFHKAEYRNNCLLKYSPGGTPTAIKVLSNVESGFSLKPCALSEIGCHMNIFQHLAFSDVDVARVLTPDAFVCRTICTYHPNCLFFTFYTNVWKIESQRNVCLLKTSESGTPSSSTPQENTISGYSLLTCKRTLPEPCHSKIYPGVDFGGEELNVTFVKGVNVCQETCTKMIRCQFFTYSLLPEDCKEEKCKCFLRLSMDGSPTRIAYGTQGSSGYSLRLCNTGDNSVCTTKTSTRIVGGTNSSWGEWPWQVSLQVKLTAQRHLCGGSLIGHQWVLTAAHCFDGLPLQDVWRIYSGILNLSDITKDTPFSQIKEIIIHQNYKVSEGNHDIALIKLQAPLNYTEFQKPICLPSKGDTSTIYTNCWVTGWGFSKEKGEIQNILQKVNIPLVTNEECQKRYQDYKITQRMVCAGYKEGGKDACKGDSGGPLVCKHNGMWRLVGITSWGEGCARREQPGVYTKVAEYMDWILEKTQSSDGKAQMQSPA
Method: as §1, §2, §3

[1] = biological target: T5, human leukocyte elastase (HLE) (Homo sapiens, UniProt P08246); test: HLE digestion of SHEL, SDS-PAGE; assay type: biochemical; details: molar excess of peptide to SHEL (100:1); SHEL and SHELδ26A
T5 construct: purchased Sigma
T5 sequence (P08246 30-267): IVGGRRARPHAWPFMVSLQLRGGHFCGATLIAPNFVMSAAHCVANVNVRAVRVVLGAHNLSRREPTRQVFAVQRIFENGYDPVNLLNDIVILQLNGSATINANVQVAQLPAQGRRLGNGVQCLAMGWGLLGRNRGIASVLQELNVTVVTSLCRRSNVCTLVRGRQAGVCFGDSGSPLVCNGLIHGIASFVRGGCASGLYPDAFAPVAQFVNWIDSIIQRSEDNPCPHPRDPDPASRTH
Method: as §1, §2, §3

kallikrein = biological target: T6, kallikrein (Homo sapiens, UniProt P03952); assay type: biochemical
T6 construct: from tissue; host or cells: human serum
T6 sequence (P03952 20-638): as the sequence (P03952 20-638) above

Compound | effect of protease inhibitor on serum degradation of SHEL (amount of full-length SHEL) (human serum) | effect of peptide on degradation of SHEL by plasmin (full-length SHEL, SDS-PAGE, densitometry) (human plasmin) | effect of peptide on degradation of SHEL by trypsin (full-length SHEL, SDS-PAGE, densitometry) (bovine trypsin) | effect of peptide on degradation of SHEL by kallikrein (full-length SHEL, SDS-PAGE, densitometry) (human plasma kallikrein) | effect of peptide on degradation of SHEL by HLE (full-length SHEL, SDS-PAGE, densitometry) [1] | effect of peptide on degradation of SHEL by thrombin (full-length SHEL, SDS-PAGE, densitometry) (human thrombin) | effect of peptide on degradation of SHEL by serum (full-length SHEL, SDS-PAGE, densitometry) (human serum) | further results
Cl.NCCc1ccc(S(=O)(=O)F)cc1 [Pefabloc SC] | protected tropoelastin from cleavage | – | – | – | – | – | – | –
Hirudin [reference compound] | did not appear to significantly inhibit degradation | – | – | – | – | – | – | inhibition of thrombin degradation of SHEL by inhibitor (human thrombin; not shown): degradation was inhibited
O=C(O)CN(CCN(CC(=O)O)CC(=O)O)CC(=O)O [EDTA] | appeared to promote digestion | – | – | – | – | – | – | effect on 64 kDa zone in gelatin zymogram digested with serum (gelatinase A): 64 kDa zone was not observed
N-AAKAQLRAAAGLGA-C (KAQLRAAAGLGAGI; listed as Homo sapiens) [SPS-peptide] | – | more full-length SHEL was evident compared with controls | more full-length SHEL was evident compared with controls | more full-length SHEL was evident compared with controls | more full-length SHEL using thrombin and HLE but to a lesser extent | more full-length SHEL using thrombin and HLE but to a lesser extent | more full-length SHEL was evident compared with controls | –
N-VVGSPSAQDEASPLS-C (listed as Homo sapiens) [S-GAL, reference compound] | – | did not show any significant or consistent inhibition | did not show any significant or consistent inhibition | did not show any significant or consistent inhibition | consistently inhibited; also recorded: significant and reproducible inhibition was seen | some inhibition could be seen | did not show any significant or consistent inhibition | –
O=S(=O)(F)Cc1ccccc1 [PMSF] | protected tropoelastin from cleavage | – | – | – | – | – | – | effect of inhibitor on second cleared zone in SHEL zymogram digested with serum (kallikrein): second cleared zone was not seen
